Assay [1] relates to GFP-14-3-3β and its binding proteins. The assay is described as follows: GFP-14-3-3β co-IP with LC-MS/MS label-free quantification, untreated versus PP1c-treated. On the set-up: species or system human. The note with it: PP1 vs untreated; label-free quantification.
Assay [2] deals with GFP-14-3-3β. Put plainly: GFP-14-3-3β co-IP with LC-MS/MS, untreated GFP-14-3-3β versus GFP control (14-3-3 interactome). The note with it: untreated vs GFP; label-free quantification. Type of assay: binding, human.

Ten molecules from PMC7367873, “Dissecting the sequence determinants for dephosphorylation by the catalytic subunits of phosphatases PP1 and PP2A” (Nature Communications, 2020) can be followed below.

B1: MGST1 (protein, UniProt P10620 1-155, looked up)
Microsomal glutathione …: MVDLTQVMDDEVFMAFASYATIILSKMMLMSTATAFYRLTRKVFANPEDCVAFGKGENAKKYLRTDDRVERVRRAHLNDLENIIPFLGIGLLYSLSGPDPSTAILHFRLFVGARIYHTIAYLTPLPQPNRALSFFVGYGVTLSMAYRLLKSKLYL
Regarding B1, the “Difference (log2), PP1 vs untreated” value in assay [1] was determined as 1.003 log2. Besides, the “Difference (log2), untreated vs GFP” value in assay [2] is on record as 1.613 log2.

B2: ABCG2 (protein, UniProt Q9UNQ0 1-655, looked up)
Broad substrate specificity …: MSSSNVEVFIPVSQGNTNGFPATASNDLKAFTEGAVLSFHNICYRVKLKSGFLPCRKPVEKEILSNINGIMKPGLNAILGPTGGGKSSLLDVLAARKDPSGLSGDVLINGAPRPANFKCNSGYVVQDDVVMGTLTVRENLQFSAALRLATTMTNHEKNERINRVIQELGLDKVADSKVGTQFIRGVSGGERKRTSIGMELITDPSILFLDEPTTGLDSSTANAVLLLLKRMSKQGRTIIFSIHQPRYSIFKLFDSLTLLASGRLMFHGPAQEALGYFESAGYHCEAYNNPADFFLDIINGDSTAVALNREEDFKATEIIEPSKQDKPLIEKLAEIYVNSSFYKETKAELHQLSGGEKKKKITVFKEISYTTSFCHQLRWVSKRSFKNLLGNPQASIAQIIVTVVLGLVIGAIYFGLKNDSTGIQNRAGVLFFLTTNQCFSSVSAVELFVVEKKLFIHEYISGYYRVSSYFLGKLLSDLLPMRMLPSIIFTCIVYFMLGLKPKADAFFVMMFTLMMVAYSASSMALAIAAGQSVVSVATLLMTICFVFMMIFSGLLVNLTTIASWLSWLQYFSIPRYGFTALQHNEFLGQNFCPGLNATGNNPCNYATCTGEEYLVKQGIDLSPWGLWKNHVALACMIVIFLTIAYLKLLFLKKYS
For B2, the “Difference (log2), PP1 vs untreated” value in assay [1] was 0.9597 log2. In addition, the “Difference (log2), untreated vs GFP” value in assay [2] is -0.7786 log2.

B3: RPN1 (protein, UniProt P04843 24-607, looked up)
Dolichyl-diphosphooligosacchar …: ASSEAPPLINEDVKRTVDLSSHLAKVTAEVVLAHLGGGSTSRATSFLLALEPELEARLAHLGVQVKGEDEEENNLEVRETKIKGKSGRFFTVKLPVALDPGAKISVIVETVYTHVLHPYPTQITQSEKQFVVFEGNHYFYSPYPTKTQTMRVKLASRNVESYTKLGNPTRSEDLLDYGPFRDVPAYSQDTFKVHYENNSPFLTITSMTRVIEVSHWGNIAVEENVDLKHTGAVLKGPFSRYDYQRQPDSGISSIRSFKTILPAAAQDVYYRDEIGNVSTSHLLILDDSVEMEIRPRFPLFGGWKTHYIVGYNLPSYEYLYNLGDQYALKMRFVDHVFDEQVIDSLTVKIILPEGAKNIEIDSPYEISRAPDELHYTYLDTFGRPVIVAYKKNLVEQHIQDIVVHYTFNKVLMLQEPLLVVAAFYILFFTVIIYVRLDFSITKDPAAEARMKVACITEQVLTLVNKRIGLYRHFDETVNRYKQSRDISTLNSGKKSLETEHKALTSEIALLQSRLKTEGSDLCDRVSEMQKLDAQVKELVLKSAVEAERLVAGKLKKDTYIENEKLISGKRQELVTKIDHILDAL
In the case of B3, the “Difference (log2), PP1 vs untreated” value in assay [1] is 1.002 log2. In assay [2], the “Difference (log2), untreated vs GFP” value was found to be 0.04558 log2.

B4: SERBP1 (protein, UniProt Q8NC51 2-408, looked up)
SERPINE1 mRNA-binding protein …: PGHLQEGFGCVVTNRFDQLFDDESDPFEVLKAAENKKKEAGGGGVGGPGAKSAAQAAAQTNSNAAGKQLRKESQKDRKNPLPPSVGVVDKKEETQPPVALKKEGIRRVGRRPDQQLQGEGKIIDRRPERRPPRERRFEKPLEEKGEGGEFSVDRPIIDRPIRGRGGLGRGRGGRGRGMGRGDGFDSRGKREFDRHSGSDRSSFSHYSGLKHEDKRGGSGSHNWGTVKDELTESPKYIQKQISYNYSDLDQSNVTEETPEGEEHHPVADTENKENEVEEVKEEGPKEMTLDEWKAIQNKDRAKVEFNIRKPNEGADGQWKKGFVLHKSKSEEAHAEDSVMDHHFRKPANDITSQLEINFGDLGRPGRGGRGGRGGRGRGGRPNRGSRTDKSSASAPDVDDPEAFPALA
As to B4, in assay [1], the “Difference (log2), PP1 vs untreated” value was 1.03 log2. The “Difference (log2), untreated vs GFP” value in assay [2] was -0.2637 log2.

B5: G3BP2 (protein, UniProt Q9UN86 2-482, looked up)
Ras GTPase-activating …: VMEKPSPLLVGREFVRQYYTLLNKAPEYLHRFYGRNSSYVHGGVDASGKPQEAVYGQNDIHHKVLSLNFSECHTKIRHVDAHATLSDGVVVQVMGLLSNSGQPERKFMQTFVLAPEGSVPNKFYVHNDMFRYEDEVFGDSEPELDEESEDEVEEEQEERQPSPEPVQENANSGYYEAHPVTNGIEEPLEESSHEPEPEPESETKTEELKPQVEEKNLEELEEKSTTPPPAEPVSLPQEPPKAFSWASVTSKNLPPSGTVSSSGIPPHVKAPVSQPRVEAKPEVQSQPPRVREQRPRERPGFPPRGPRPGRGDMEQNDSDNRRIIRYPDSHQLFVGNLPHDIDENELKEFFMSFGNVVELRINTKGVGGKLPNFGFVVFDDSEPVQRILIAKPIMFRGEVRLNVEEKKTRAARERETRGGGDDRRDIRRNDRGPGGPRGIVGGGMMRDRDGRGPPPRGGMAQKLGSGRGTGQMEGRFTGQRR
As for B5, the “Difference (log2), PP1 vs untreated” value in assay [1] stood at 0.991 log2. Also, in assay [2], the “Difference (log2), untreated vs GFP” value turned out to be 0.002451 log2.

B6: ALDH18A1 (protein, UniProt P54886 1-795, looked up)
Delta-1-pyrroline-5-carboxylat …: MLSQVYRCGFQPFNQHLLPWVKCTTVFRSHCIQPSVIRHVRSWSNIPFITVPLSRTHGKSFAHRSELKHAKRIVVKLGSAVVTRGDECGLALGRLASIVEQVSVLQNQGREMMLVTSGAVAFGKQRLRHEILLSQSVRQALHSGQNQLKEMAIPVLEARACAAAGQSGLMALYEAMFTQYSICAAQILVTNLDFHDEQKRRNLNGTLHELLRMNIVPIVNTNDAVVPPAEPNSDLQGVNVISVKDNDSLAARLAVEMKTDLLIVLSDVEGLFDSPPGSDDAKLIDIFYPGDQQSVTFGTKSRVGMGGMEAKVKAALWALQGGTSVVIANGTHPKVSGHVITDIVEGKKVGTFFSEVKPAGPTVEQQGEMARSGGRMLATLEPEQRAEIIHHLADLLTDQRDEILLANKKDLEEAEGRLAAPLLKRLSLSTSKLNSLAIGLRQIAASSQDSVGRVLRRTRIAKNLELEQVTVPIGVLLVIFESRPDCLPQVAALAIASGNGLLLKGGKEAAHSNRILHLLTQEALSIHGVKEAVQLVNTREEVEDLCRLDKMIDLIIPRGSSQLVRDIQKAAKGIPVMGHSEGICHMYVDSEASVDKVTRLVRDSKCEYPAACNALETLLIHRDLLRTPLFDQIIDMLRVEQVKIHAGPKFASYLTFSPSEVKSLRTEYGDLELCIEVVDNVQDAIDHIHKYGSSHTDVIVTEDENTAEFFLQHVDSACVFWNASTRFSDGYRFGLGAEVGISTSRIHARGPVGLEGLLTTKWLLRGKDHVVSDFSEHGSLKYLHENLPIPQRNTN
Take B6: the “Difference (log2), PP1 vs untreated” value in assay [1] was found to be 0.9496 log2. Moreover, in assay [2], the “Difference (log2), untreated vs GFP” value was -0.8261 log2.

B7: ZC3HAV1 (protein, UniProt Q7Z2W4 2-902, looked up)
Zinc finger CCCH-type …: ADPEVCCFITKILCAHGGRMALDALLQEIALSEPQLCEVLQVAGPDRFVVLETGGEAGITRSVVATTRARVCRRKYCQRPCDNLHLCKLNLLGRCNYSQSERNLCKYSHEVLSEENFKVLKNHELSGLNKEELAVLLLQSDPFFMPEICKSYKGEGRQQICNQQPPCSRLHICDHFTRGNCRFPNCLRSHNLMDRKVLAIMREHGLNPDVVQNIQDICNSKHMQKNPPGPRAPSSHRRNMAYRARSKSRDRFFQGSQEFLASASASAERSCTPSPDQISHRASLEDAPVDDLTRKFTYLGSQDRARPPSGSSKATDLGGTSQAGTSQRFLENGSQEDLLHGNPGSTYLASNSTSAPNWKSLTSWTNDQGARRKTVFSPTLPAARSSLGSLQTPEAVTTRKGTGLLSSDYRIINGKSGTQDIQPGPLFNNNADGVATDITSTRSLNYKSTSSGHREISSPRIQDAGPASRDVQATGRIADDADPRVALVNDSLSDVTSTTSSRVDDHDSEEICLDHLCKGCPLNGSCSKVHFHLPYRWQMLIGKTWTDFEHMETIEKGYCNPGIHLCSVGSYTINFRVMSCDSFPIRRLSTPSSVTKPANSVFTTKWIWYWKNESGTWIQYGEEKDKRKNSNVDSSYLESLYQSCPRGVVPFQAGSRNYELSFQGMIQTNIASKTQKDVIRRPTFVPQWYVQQMKRGPDHQPAKTSSVSLTATFRPQEDFCFLSSKKYKLSEIHHLHPEYVRVSEHFKASMKNFKIEKIKKIENSELLDKFTWKKSQMKEEGKLLFYATSRAYVESICSNNFDSFLHETHENKYGKGIYFAKDAIYSHKNCPYDAKNVVMFVAQVLVGKFTEGNITYTSPPPQFDSCVDTRSNPSVFVIFQKDQVYPQYVIEYTEDKACVIS
Take B7: the “Difference (log2), PP1 vs untreated” value in assay [1] was 1.025 log2. Further, the “Difference (log2), untreated vs GFP” value in assay [2] is reported as -0.3627 log2.

B8: YTHDF2 (protein, UniProt Q9Y5A9 2-579, looked up)
YTH domain-containing family …: SASSLLEQRPKGQGNKVQNGSVHQKDGLNDDDFEPYLSPQARPNNAYTAMSDSYLPSYYSPSIGFSYSLGEAAWSTGGDTAMPYLTSYGQLSNGEPHFLPDAMFGQPGALGSTPFLGQHGFNFFPSGIDFSAWGNNSSQGQSTQSSGYSSNYAYAPSSLGGAMIDGQSAFANETLNKAPGMNTIDQGMAALKLGSTEVASNVPKVVGSAVGSGSITSNIVASNSLPPATIAPPKPASWADIASKPAKQQPKLKTKNGIAGSSLPPPPIKHNMDIGTWDNKGPVAKAPSQALVQNIGQPTQGSPQPVGQQANNSPPVAQASVGQQTQPLPPPPPQPAQLSVQQQAAQPTRWVAPRNRGSGFGHNGVDGNGVGQSQAGSGSTPSEPHPVLEKLRSINNYNPKDFDWNLKHGRVFIIKSYSEDDIHRSIKYNIWCSTEHGNKRLDAAYRSMNGKGPVYLLFSVNGSGHFCGVAEMKSAVDYNTCAGVWSQDKWKGRFDVRWIFVKDVPNSQLRHIRLENNENKPVTNSRDTQEVPLEKAKQVLKIIASYKHTTSIFDDFSHYEKRQEEEESVKKERQGRGK
For the molecule B8, in assay [1], the “Difference (log2), PP1 vs untreated” value was 1.045 log2. The “Difference (log2), untreated vs GFP” value in assay [2] is recorded as 1.029 log2.

B9: HACD3 (protein, UniProt Q9P035 1-362, looked up)
Very-long-chain …: MENQVLTPHVYWAQRHRELYLRVELSDVQNPAISITENVLHFKAQGHGAKGDNVYEFHLEFLDLVKPEPVYKLTQRQVNITVQKKVSQWWERLTKQEKRPLFLAPDFDRWLDESDAEMELRAKEEERLNKLRLESEGSPETLTNLRKGYLFMYNLVQFLGFSWIFVNLTVRFCILGKESFYDTFHTVADMMYFCQMLAVVETINAAIGVTTSPVLPSLIQLLGRNFILFIIFGTMEEMQNKAVVFFVFYLWSAIEIFRYSFYMLTCIDMDWKVLTWLRYTLWIPLYPLGCLAEAVSVIQSIPIFNETGRFSFTLPYPVKIKVRFSFFLQIYLIMIFLGLYINFRHLYKQRRRRYGQKKKKIH
Consider B9, for which the “Difference (log2), PP1 vs untreated” value in assay [1] is recorded as 0.9389 log2. The “Difference (log2), untreated vs GFP” value in assay [2] is reported as -0.3489 log2.

B10: SLC25A3 (protein, UniProt Q00325 50-362, looked up)
Solute carrier family 25 …: AVEEQYSCDYGSGRFFILCGLGGIISCGTTHTALVPLDLVKCRMQVDPQKYKGIFNGFSVTLKEDGVRGLAKGWAPTFLGYSMQGLCKFGFYEVFKVLYSNMLGEENTYLWRTSLYLAASASAEFFADIALAPMEAAKVRIQTQPGYANTLRDAAPKMYKEEGLKAFYKGVAPLWMRQIPYTMMKFACFERTVEALYKFVVPKPRSECSKPEQLVVTFVAGYIAGVFCAIVSHPADSVVSVLNKEKGSSASLVLKRLGFKGVWKGLFARIIMIGTLTALQWFIYDSVKVYFRLPRPPPPEMPESLKKKLGLTQ
As for B10, the “Difference (log2), PP1 vs untreated” value in assay [1] is listed as 1.025 log2. Further, in assay [2], the “Difference (log2), untreated vs GFP” value is recorded as 1.257 log2.
